# Measured values reported in the supplement of paper PMC9170038.
# Tested on: MS2 coat protein
# Assay: apparent KD of MS2 coat protein; designed switch direction (-1 OFF switch, 1 ON switch): -1; higher = weaker reporter binding
# Procedure, shortened: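 RNA switches sharing common flanks were transcribed by stalled E. coli RNA polymerase on Illumina chips. A doubling series of SNAP-549-labelled MS2 coat protein, from 0.7 or 1.5 nM to 3 µM, was applied in Tris-HCl pH 7.5 buffer with KCl, MgCl2, BSA, DTT, tRNA and Tween-20. Each step lasted 0.8–1.5 h at the bottom of the series and 10–20 min at the top. Normalised cluster fluorescence was curve-fitted, giving apparent KD as the per-design median over clusters.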
# [1] = input ligand: microRNA oligo, concentration not stated
# [2] = Eterna round: R95, input ligand: FMN 200 uM
# [3] = Eterna round: R95, input ligand: microRNA oligo, concentration not stated
# [4] = Eterna round: R95, input ligand: none
Sequence,apparent KD of MS2 coat protein (input ligand: FMN 200 uM),apparent KD of MS2 coat protein (input ligand: none),apparent KD of MS2 coat protein [3],also measured
"GGACCGAGUGUGAGGAUAUGCUGGUCCUUGGAUCAGCAGAAGGCACAUGAGGAUCACCCAUGUGGAGACGGUCC [Eli bmx4 4.33] (Eterna round: R97, puzzle: Brourd's mod of Exclusion 4)",1050 nM,87.4 nM,,
"GCGGACUCGAUCGUGAGAUCGGAGACAUGAGGAUCACCCAUGUAGGAUAUCGAUUGCUUUGCAGUCGAGAAGGGCGUGGUCCGC [JL denovo 17] (Eterna round: R96, puzzle: Exclusion NG 3)",152 nM,157 nM,,apparent KD of MS2 coat protein [1]: 98.1 nM
"GCGAAAGCAAGCAAGUGAAACAUGAGGAUCACCCAUGUCCUCAUUUGCUCGUCUUAUAAGCUAUGCGAAAGCAUAGC [Sensor 3, v1 - 2] (puzzle: Sensor v3, turn-off variant 1)",,,220 nM,apparent KD of MS2 coat protein [2]: 13.9 nM; apparent KD of MS2 coat protein [4]: 10.5 nM
UUUUCUUUUGUGAGGAUAUACUUCUUUUUUUUUUUGUAGAAGGCACAUGAGGAUCACCCAUGUUUUCUUUUCUG [JR_BME4_Sub027] (puzzle: Brourd's mod of Exclusion 4),,,22.1 nM,
"AGUACUAUCACGAAAGUGAUAGUACAAUAAGCUUGUGGAACAUGAGGAUCACCCAUGUCCUCAUAAGCUCGUCUUAU [Mat - Sensor v3 - Turn-off var 2 - D27] (puzzle: Sensor v3, turn-off variant 2)",,,68.7 nM,apparent KD of MS2 coat protein [2]: 15.7 nM; apparent KD of MS2 coat protein [4]: 14.7 nM
"GAGAACUGAGGAUAUACAUGAGGAUCACCCAUGUUGAGAAGAAAGUAUAAAAGAUUGUGUAGAAGGCAGAGAGA [JR_Ex3_Sub069] (Eterna round: R97, puzzle: Exclusion 3)",52.3 nM,35.8 nM,,
GGGUGACAUGAGGAUCACCCAUGUCAGGAUAUGAUACUAUGUACUUCGGUACAUAGUAUCAGAAGGGACAUCAU [Ex1-3: 14] (puzzle: Exclusion 1),,,216 nM,
"AAAACAAACUUUUUGCUCGUCUUAUAUGACGCUCGAGUCACAUGAGGAUCACCCAUGUCUUCCUGUUUGAUAGUUGA [JR_SV3TOV2_Sub055] (puzzle: Sensor v3, turn-off variant 2)",,,113 nM,apparent KD of MS2 coat protein [2]: 113 nM; apparent KD of MS2 coat protein [4]: 142 nM
"CCUAUGUUAGGAUAUCUAGUAAGAGGCCCAUAGGGCCGUGCAGAGAAGGGACAUGAGGAUCACCCAUGUGUCAC [Eternabot (L1) Solution 86] (Eterna round: R97, puzzle: Exclusion 4)",26.7 nM,34.6 nM,,
"CACCUGAAUACAGGAUAUCUUACAUGAGGAUCACCCAUGUAAUAAAUGAGAAUUUCGAAUGUAAUAGAGAAGGGUAGAUAAGGC [Ostracism 87 - Jieux - Exclusion NG 2] (Eterna round: R96, puzzle: Exclusion NG 2)",39.2 nM,33.1 nM,,apparent KD of MS2 coat protein [1]: 26.5 nM
CCGCAUAUGCAGGAUAUCGUAUCGGAAACGAUACGAGAAGGGUAAACAUGAGGAUCACCCAUGUUCCUUAACGG [Fiskers Ex 6 - 28] (puzzle: Exclusion 6),,,14.6 nM,
CUCGUGUGAGGAUAUCUAUUCCACGGACGGGAGUCUUGAAGAGAGAAGGCACAUGAGGAUCACCCAUGUAAUAA [Latequ] (puzzle: Exclusion 4),,,107 nM,
"ACACUGCGAGGAUAUACAUGAGGAUCACCCAUGUGUCGGCAGGUACGGUAGCACUAGUGUAGAAGGCGCAUUAG [EX3 #40] (Eterna round: R97, puzzle: Exclusion 3)",17 nM,15.4 nM,,
"AUGUGCACGCUGCGGUCCUACAUGAGGAUCACCCAUGUGGUCUGGUGGCGUGGGUCACCGGACUUGGCUCGUCUUGC [salish99_S_TOV1_R5_058] (Eterna round: R97, puzzle: Sensor, turn-off variant 1)",21.4 nM,21.2 nM,,
"GCGGCGUAUGUAGGAUAUCGGUCAGUUUCUGAUCGAGAAGGACAUGAGGAUCACCCAUGUAAAUUACCGACUUUGUCGGGCCGC [JL ENG1 3.66] (Eterna round: R96, puzzle: Exclusion NG 1)",20.4 nM,17.7 nM,,apparent KD of MS2 coat protein [1]: 13.5 nM
CGUGACUCAGGAUAUCUAUAAUAUCACAUGAGGAUCACCCAUGUCCAGCAAUAGCUGGAGGGAGAAGGGAGUCACG [Fiskers Ex 5 - 40] (puzzle: Exclusion 5),,,195 nM,
"GUUAUCGCAGGAUAUUAAUACUUGUACAUGAGGAUCACCCAUGUUUAUUGGGAUUAAGAAUAAGAAGGGCGAUGAA [JR_Ex5_Sub003] (Eterna round: R97, puzzle: Exclusion 5)",52.8 nM,27.8 nM,,
"AAAACGUGAGGAUAUCCAAUAUAUGACAUGAGGAUCACCCAUGUUUCCACUCGUACCUCCGGAGAAGGCACAAUAA [Ex5 #76] (Eterna round: R97, puzzle: Exclusion 5)",37.6 nM,56.2 nM,,

Sequence,apparent KD of MS2 coat protein (input ligand: FMN 200 uM),apparent KD of MS2 coat protein (input ligand: none),apparent KD of MS2 coat protein [3],also measured
"GGUCCUGAUGAUUUUCUAUACAUGAGGAUCACCCAUGUAUGUGUAUUUUGUUUUUCGCUUUUUGGUCGUCAAUAAUA [Mod-Hoo-honey] (Eterna round: R97, puzzle: Sensor, turn-off variant 1)",43.8 nM,44.3 nM,,
GGUGGACAUGAGGAUCACCCAUGUGAGGAUAUCGGCUGGCUAGUGGCGGCUGGCUUCUCGAGAAGGCGCAUAGU [Exclusion 1 V79] (puzzle: Exclusion 1),,,42.2 nM,
"AAAUUGGUAGAGGAUAUCGUACAGGAAACGAUGCGAGAAGGCUGCACAUGAGGAUCACCCAUGUUCAGUUGCGA [EX6 #41] (Eterna round: R97, puzzle: Exclusion 6)",17.9 nM,17.6 nM,,
GGAUAGUGAGGAUAUCGAUGUUAGGAGGAGGAGGUAGGAGGCGAGAAGGCACAUGAGGAUCACCCAUGUAUGGU [JR_Exclu4_Sub069] (puzzle: Exclusion 4),,,28.2 nM,
"GUUAACGCAGGAUAUUAGUACUUUUACAUGAGGAUCACCCAUGUUAAUUGGGUCUAAGAAUAAGAAGGGCGAUGAA [JR_Ex5_Sub009] (Eterna round: R97, puzzle: Exclusion 5)",48.3 nM,42.8 nM,,
"UUUAAUUUUUUUUUUUUACAAGCUUUUUGCUCGUCUUAUACAUGAGGAUCACCCAUGUGAGUGGAAGGUAAAUUAUC [JMF 69] (puzzle: Sensor v3, turn-off variant 2)",,,18 nM,apparent KD of MS2 coat protein [2]: 12.6 nM; apparent KD of MS2 coat protein [4]: 11.8 nM
"AUUCCUCCUGUGAGGAUAUGCGUUACGCACCCGUCGCAGAAGGCACAUGAGGAUCACCCAUGUGAGUUACCAAU [BmEX4 A.11] (Eterna round: R97, puzzle: Brourd's mod of Exclusion 4)",166 nM,18.9 nM,,
"AGCUGUGGCCGAGGAUAUACACAUGAGGAUCACCCAUGUAGGCGCGGAAACGCGCUAAAAGGGUUGUAGAAGGCGGUCUCAGCA [Eli eng2 - 054] (Eterna round: R96, puzzle: Exclusion NG 2)",471 nM,114 nM,,apparent KD of MS2 coat protein [1]: 165 nM
"AGUAGAUCUACGCUUGCGUGGAUCUGCUAGGCAGGUGUUACAUGAGGAUCACCCAUGUCCUCAUUUGUUCGUCUUAU [JL turnoff v2 99.17] (puzzle: Sensor v3, turn-off variant 2)",,,153 nM,apparent KD of MS2 coat protein [2]: 378 nM; apparent KD of MS2 coat protein [4]: 604 nM
UAAUUAAGUGUGAGGAUAUGCUGGUCCUUGGAUCAGCAGAAGGCACAUGAGGAUCACCCAUGUAAUUUAUAUAU [Mat - Exclusion 4 - JL Mod - D52] (puzzle: Brourd's mod of Exclusion 4),,,85.5 nM,
"AAUAACAUGUUGAUCAAAUACAUGAGGAUCACCCAUGUAUGCUUUUUGCUCGAUAAGAUCAACUAAUAAUAAUAAUA [StovNew/1-A] (Eterna round: R97, puzzle: Sensor, turn-off variant 1)",14 nM,15.6 nM,,
UAGAAACAUGAGGAUCACCCAUGUGAGGAUAUGAAAAAGAAAAGAAAAGAAAGAAGAAUCAGAAGGCACAAAGU [salish99-ex1_r3_087] (puzzle: Exclusion 1),,,27.2 nM,apparent KD of MS2 coat protein [2]: 30.5 nM; apparent KD of MS2 coat protein [4]: 32.3 nM
"CACCGUUAAAGAGGAUAUCGUACAUGAGGAUCACCCAUGUAAUAAAUGAGAAUUUCGGAUGUAUGCGAGAAGGCUUAAAUCGGC [Ostracism 47 - Jieux - Exclusion NG 2] (Eterna round: R96, puzzle: Exclusion NG 2)",,,,apparent KD of MS2 coat protein [1]: 39.5 nM
"CAUGUCCAACGAGGAUAUGGUAAAGGAAGUGUACCAGAAGGCGUGCGGACAUGAGGAUCACCCAUGUCGCGCGGUGCGAUGUGG [MOD3 Nando EXNG 1.1] (Eterna round: R96, puzzle: Exclusion NG 1)",37.2 nM,29.3 nM,,apparent KD of MS2 coat protein [1]: 15.8 nM
"GAUCGACAUGAGGAUCACCCAUGUCAGGAUAUCUACAUUGAAGCUGCGGCUUCAAUGUAGAGAAGGGAUAUAAU [E1/16-B1] (Eterna round: R97, puzzle: Exclusion 1)",36.9 nM,27.2 nM,,
"GUGUGUGAUGUAGGAUAUACGAGACAUGAGGAUCACCCAUGUGAGGGAAGGAGAAGGAGAAGAGAGUAGAAGGAUAGAGUGUGA [Default title] (Eterna round: R96, puzzle: Exclusion NG 2)",133 nM,131 nM,,apparent KD of MS2 coat protein [1]: 144 nM
"AUCCGUUCUUAGGAUAUUUGAUAAGUCAUGUACGAAGAAGGAAGAACAUGAGGAUCACCCAUGUGGGACUUCGG [Eternabot (L2) Solution 12] (Eterna round: R97, puzzle: Exclusion 6)",29 nM,25.9 nM,,
